{"source": "patent US20110243928A1", "about": "(published 2011)", "binders": {"B1": {"name": "chimaeric 6A1 (antibody, human IgG1, V domains shown)", "VH": "EIQLQQSVAELVRPGASVRLSCTASGFYIKDTYMHWVIQRPEQGLEWIGTIDPANGNTKYVPKFQGKATITADTSSNTAYLRLSSLTSEDTAIYYCARSIYDDYHYDDYYAMDYWGQGTSVTVSS", "VL": "DVLMTQTPLSLPVSLGDQASISCRSSQNIVHINGNTYLEWYLQKPGQSPKLLIYKISDRFSGVPDRFSGSGSGTDFTLKISRVEAEDLGVYYCFQGSHVPWTFGGGTKLEIK", "notes": "Parent murine 6A1 V regions on human IgG1/k wild type C regions, expressed in CHO cells; also called 6A1c; 6A1 chimaeric antibody"}}, "key": {"[1]": {"target": "E. coli-expressed recombinant human GM-CSF (human, UniProt P04141 18-144)", "sequence (P04141 18-144 limits assumed)": "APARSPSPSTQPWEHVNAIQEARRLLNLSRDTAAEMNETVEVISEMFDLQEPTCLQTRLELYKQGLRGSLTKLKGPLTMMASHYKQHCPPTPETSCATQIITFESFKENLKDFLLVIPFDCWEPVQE", "assay": "sandwich ELISA"}, "[2]": {"target": "T1, E. coli-expressed recombinant human IL-13 (human, UniProt P35225 35-146)", "T1 sequence (P35225 other isoform, or with tags, fused parts or gaps)": "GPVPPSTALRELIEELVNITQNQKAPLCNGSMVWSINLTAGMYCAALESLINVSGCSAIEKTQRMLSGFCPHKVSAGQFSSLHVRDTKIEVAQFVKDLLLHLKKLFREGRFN", "assay": "cell-based or functional assay"}, "[3]": {"target": "T2, E. coli-expressed recombinant cynomolgus IL-13 (cynomolgus, UniProt Q5I6E4 21-132 (Macaca thibetana entry))", "T2 chain": "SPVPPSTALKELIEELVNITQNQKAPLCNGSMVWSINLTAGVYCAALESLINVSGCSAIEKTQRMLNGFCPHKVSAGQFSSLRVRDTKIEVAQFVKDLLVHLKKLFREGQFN", "assay": "cell-based or functional assay"}, "[4]": {"target": "E. coli-expressed recombinant Q130 human IL-13 (human, UniProt P35225 35-146, limits assumed)", "sequence (P35225 35-146 limits assumed)": "as the sequence (P35225 other isoform, or with tags, fused parts or gaps) above, with R110Q counted along it", "assay": "cell-based or functional assay"}, "[5]": {"target": "mammalian-expressed (CHO cell) human IL-13 (human, UniProt P35225 35-146, limits assumed)", "sequence (P35225 other isoform, or with tags, fused parts or gaps limits assumed)": "as the sequence (P35225 other isoform, or with tags, fused parts or gaps) above", "assay": "cell-based or functional assay"}, "[6]": {"target": "T3, E. coli-expressed recombinant human IL-4 (human, UniProt P05112 25-153)", "T3 sequence (looked up)": "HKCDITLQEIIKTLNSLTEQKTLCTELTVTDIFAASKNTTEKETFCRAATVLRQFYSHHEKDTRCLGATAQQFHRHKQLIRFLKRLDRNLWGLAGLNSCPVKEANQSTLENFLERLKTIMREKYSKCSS", "assay": "human IL-4 binding sandwich ELISA"}, "[7]": {"target": "T1, E. coli-expressed recombinant human …", "assay": "human IL-13 binding sandwich ELISA"}, "[8]": {"target": "T2, E. coli-expressed recombinant …", "assay": "cynomolgus IL-13 binding sandwich ELISA"}, "[9]": {"target": "T1, E. coli-expressed recombinant human …", "assay": "BIAcore analysis 1, antibody captured, IL-13 in solution", "description": "(§1) Completed for both human and cynomolgus IL-13 (E. coli-expressed protein). The quoted KD values are the average from 5 different IL-13 concentration curves (done in triplicate). Note that mass transfer issues were apparent in this analysis and that a modified experimental protocol (to correct for this issue) has been completed in analysis 4 (where no mass transfer issues were present).\n(§2) The kinetics analysis was performed on a Biacore 3000 machine, using an antibody capture method. Briefly, for the chimeric 6A1 and humanised antibody constructs Protein A capture was used, whilst for the parental murine 6A1 antibody, capture was by a anti-mouse Fc antibody supplied by Biacore. Briefly, the method is as follows, the capture ligand was immobilised to a CM5 Biosensor chip by primary amine coupling in accordance with Biacore standard protocols and using the reagents supplied in Biacores' primary amine coupling kit. The method involves activation CM5 sensor surface by passing a solution of 50 mM N-hydroxy-succinimide (NHS) and 200 mM N-ethyl-N′-dimethylaminopropyl […] (EDC) over the surface. Then, the capture ligand (dissolved in acetate buffer pH5 or pH4.5) was coupled to the activated sensor surface after which any still activated esters were blocked by an injection of 1M ethanolamine hydrochloride, pH8.5.\n(§3) The candidate antibody was then passed over the Protein A or anti-mouse Fc antibody surface, depending on whether it was human or mouse in origin and captured. Once a stable binding signal was seen IL13 was passed over the captured antibody surface at various defined concentrations. The subsequent binding curves were analysed with Biacore analysis software BIAeval v4.1 to determine kinetics. The experiments were carried out using Biacore HBS-EP buffer."}, "[10]": {"target": "T2, E. coli-expressed recombinant …", "assay": "BIAcore analysis 1, antibody captured, IL-13 in solution", "description": "as §1, §2, §3"}, "[11]": {"target": "T4, native (PBMC derived) human IL-13 (human, UniProt P35225 35-146, limits assumed)", "T4 construct": "IL-13 in supernatant of stimulated human CD4+ Th2 cells; also called native human IL-13; Native IL-13", "T4 sequence (P35225 other isoform, or with tags, fused parts or gaps limits assumed)": "as the sequence (P35225 other isoform, or with tags, fused parts or gaps) above", "assay": "ELISA on Th2 cell supernatant read against a standard curve"}, "[12]": {"target": "T5, 16mer biotinylated human IL-13 peptide number 24 (human, N-terminal biotin; C-terminal amide)", "T5 construct": "format Biotin-SGSG-PEPTIDE-amide; also called Peptide 24", "T5 peptide": "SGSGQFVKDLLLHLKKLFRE", "assay": "BIAcore analysis 3, antibody over biotinylated peptide on SA chip", "description": "Completed for the 16mer biotinylated human IL-13 peptide number 24 (identified as the linear binding epitope for parental mAb 6A1, see section 6.7). Note that the absolute KD values obtained for binding to peptide ligands are often quite different to those seen for binding to whole protein targets.\nThe kinetics analysis was performed on a Biacore 3000 machine using direct binding of antibody to immobilised IL-13 peptide. Briefly, IL-13 biotinylated peptide was captured using a Biacore SA (strepavidin) Biosensor chip. The antibodies were then passed over the sensor surface at various concentrations. The subsequent binding curves were analysed with Biacore analysis software BIAeval 4.1 to determine kinetics. The experiment was carried out using Biacore HBS-EP buffer"}, "[13]": {"target": "T1, E. coli-expressed recombinant human …", "assay": "BIAcore analysis 4, antibody captured on Protein A, IL-13 in solution", "description": "(§4) Completed for both human and cynomolgus IL-13 (E. coli-expressed protein). The quoted KD values are the average from 5 different IL-13 concentration curves (done in triplicate).\nas §2, §3"}, "[14]": {"target": "T2, E. coli-expressed recombinant …", "assay": "BIAcore analysis 4, antibody captured on Protein A, IL-13 in solution", "description": "as §4, §2, §3"}, "[15]": {"target": "T6, E. coli-expressed recombinant det-1 tagged human IL-13 (human, UniProt P35225 35-146)", "T6 construct": "also called Det-1 tagged human IL-13 (made in-house); not shown: det-1 tag", "T6 sequence (P35225 other isoform, or with tags, fused parts or gaps)": "as the sequence (P35225 other isoform, or with tags, fused parts or gaps) above", "assay": "competition ELISA: inhibition of det-1 tagged human IL-13 binding to human IL-13Rα1-Fc"}, "[16]": {"target": "T6, E. coli-expressed recombinant det-1 …", "assay": "competition ELISA: inhibition of det-1 tagged human IL-13 binding to human IL-13Rα2-Fc"}}}
{"binder": "B1", "values": [{"measurement": "binding result", "setting": "[1]", "value": "no binding"}, {"measurement": "Mean ND50 for 2 assays", "setting": "[2]", "value": 0.119, "unit": "µg/mL"}, {"measurement": "Mean ND50 for 2 assays", "setting": "[3]", "value": 0.059, "unit": "µg/mL"}, {"measurement": "Mean ND50 for 2 assays", "setting": "[4]", "value": 0.128, "unit": "µg/mL"}, {"measurement": "Mean ND50 for 2 assays", "setting": "[5]", "value": 0.285, "unit": "µg/mL"}, {"measurement": "binding result", "setting": "[6]", "value": "no binding"}, {"measurement": "EC50", "setting": "[7]", "value": 0.015, "unit": "µg/mL"}, {"measurement": "EC50", "setting": "[8]", "value": 0.018, "unit": "µg/mL"}, {"measurement": "Kd", "setting": "[9]", "value": 0.043, "unit": "nM"}, {"measurement": "koff", "setting": "[9]", "value": "2e-05", "unit": "s⁻¹"}, {"measurement": "kon", "setting": "[9]", "value": 464000, "unit": "M⁻¹ s⁻¹"}, {"measurement": "Kd", "setting": "[10]", "value": 0.055, "unit": "nM"}, {"measurement": "koff", "setting": "[10]", "value": "3.27e-05", "unit": "s⁻¹"}, {"measurement": "kon", "setting": "[10]", "value": 592000, "unit": "M⁻¹ s⁻¹"}, {"measurement": "Native IL-13 (ng/ml) detected in Th2 supernatant", "setting": "[11]", "value": 19.6, "unit": "ng/mL"}, {"measurement": "Kd", "setting": "[12]", "value": 3.58, "unit": "nM"}, {"measurement": "koff", "setting": "[12]", "value": 0.000919, "unit": "s⁻¹"}, {"measurement": "kon", "setting": "[12]", "value": 257000, "unit": "M⁻¹ s⁻¹"}, {"measurement": "Kd", "setting": "[13]", "value": 0.038, "unit": "nM"}, {"measurement": "koff", "setting": "[13]", "value": "4e-05", "unit": "s⁻¹"}, {"measurement": "kon", "setting": "[13]", "value": "1.05e+06", "unit": "M⁻¹ s⁻¹"}, {"measurement": "Kd", "setting": "[14]", "value": 0.03, "unit": "nM"}, {"measurement": "koff", "setting": "[14]", "value": "2.65e-05", "unit": "s⁻¹"}, {"measurement": "kon", "setting": "[14]", "value": 885000, "unit": "M⁻¹ s⁻¹"}, {"measurement": "IC50", "setting": "[15]", "value": 0.034, "unit": "µg/mL"}, {"measurement": "IC50", "setting": "[16]", "value": 0.04, "unit": "µg/mL"}]}
